The values that follow are results of earlier work, collected in paper PMC5663392.

In the data set the target is FANCL RING (Homo sapiens) (UniProt Q9NW38).
Chain of UniProt Q9NW38 (Q9NW38 304-366): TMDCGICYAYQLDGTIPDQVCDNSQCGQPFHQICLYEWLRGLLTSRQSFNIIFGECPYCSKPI

Take Ube2T (from UniProt Q9NPD8): the Kd was 500 nM.

In general, Kd refers to the concentration at which binding is half-saturated.
